In this assay the target is AKAP95 (human (endogenous in HEK293T)) (UniProt O43823). As to the kind of experiment: proximity ligation.
Chain of UniProt O43823 (O43823 whole entry): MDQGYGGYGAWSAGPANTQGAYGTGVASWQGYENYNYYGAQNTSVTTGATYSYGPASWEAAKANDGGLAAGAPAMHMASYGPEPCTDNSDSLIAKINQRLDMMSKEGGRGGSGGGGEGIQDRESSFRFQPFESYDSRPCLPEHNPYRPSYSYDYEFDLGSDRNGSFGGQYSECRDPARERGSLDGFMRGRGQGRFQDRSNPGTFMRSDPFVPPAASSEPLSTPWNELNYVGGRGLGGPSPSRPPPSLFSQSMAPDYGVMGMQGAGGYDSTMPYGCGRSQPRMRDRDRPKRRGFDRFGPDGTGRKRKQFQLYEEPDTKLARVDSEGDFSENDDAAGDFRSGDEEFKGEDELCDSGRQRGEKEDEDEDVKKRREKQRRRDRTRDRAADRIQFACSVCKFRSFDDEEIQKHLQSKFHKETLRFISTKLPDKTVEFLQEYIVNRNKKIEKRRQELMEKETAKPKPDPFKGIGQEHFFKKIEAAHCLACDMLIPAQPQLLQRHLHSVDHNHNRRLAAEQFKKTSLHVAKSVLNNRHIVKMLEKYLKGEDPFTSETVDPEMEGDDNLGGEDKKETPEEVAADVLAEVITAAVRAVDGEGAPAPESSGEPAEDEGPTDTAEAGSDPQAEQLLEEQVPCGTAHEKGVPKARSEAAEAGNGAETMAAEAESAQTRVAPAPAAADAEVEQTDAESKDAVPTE

In turn, PDE4D5 (enzyme) registered a PLA dots per nuclei (dots per nuclei) of 3.8.

The values are drawn from publication PMC6588460.
